Target: human IFNγ (human) (UniProt P01579)
Experiment: cell-based or functional assay

Chain of UniProt P01579 (P01579 24-166 limits assumed): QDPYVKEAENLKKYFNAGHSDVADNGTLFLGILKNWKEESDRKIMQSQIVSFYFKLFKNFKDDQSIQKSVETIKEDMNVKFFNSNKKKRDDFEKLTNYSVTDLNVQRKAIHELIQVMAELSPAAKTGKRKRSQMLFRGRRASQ

inhibition of IFNγ signaling at dilution 0.5 of supernatant, HEK-Blue IFNγ reporter cells: 80%
Substance: Amg-HL, anti-IFNγ scFv from AMG811 (heavy chain variable region to light chain variable region)

Source: patent US20230149465A1
